Source: US20150259419A1 (PROTHENA BIOSCIENCES, published 2015)

T1: human MCAM domain 1 (MCAMhFc domain construct) (human, UniProt P43121 19-129)
T1 construct: also called amino acids 19-129; not shown: human Fc portion (captured on anti-human IgG Fc biosensors)
T1 sequence: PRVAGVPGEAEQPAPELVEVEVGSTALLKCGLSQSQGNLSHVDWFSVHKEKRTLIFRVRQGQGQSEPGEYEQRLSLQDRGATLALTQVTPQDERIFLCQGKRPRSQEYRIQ

T2: human MCAM domain 2 (MCAMhFc domain construct) (human, UniProt P43121 139-242)
T2 construct: not shown: human Fc portion
T2 sequence: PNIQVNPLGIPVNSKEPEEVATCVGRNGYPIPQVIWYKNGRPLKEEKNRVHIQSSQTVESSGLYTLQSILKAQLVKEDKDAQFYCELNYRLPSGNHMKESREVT

T3: combination of human MCAM domains 1 and 2 (MCAMhFc domain construct) (human, UniProt P43121 19-242)
T3 construct: not shown: human Fc portion
T3 sequence: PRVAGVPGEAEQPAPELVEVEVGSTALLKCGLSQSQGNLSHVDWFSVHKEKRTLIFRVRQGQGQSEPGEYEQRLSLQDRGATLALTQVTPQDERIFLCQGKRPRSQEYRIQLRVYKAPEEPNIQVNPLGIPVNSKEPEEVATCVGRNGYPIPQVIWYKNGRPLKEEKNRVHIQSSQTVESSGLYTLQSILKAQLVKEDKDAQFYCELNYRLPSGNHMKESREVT

T4: full length MCAMhFc protein (extracellular domain of human MCAM fused to human IgG) (human, UniProt P43121 24-559)
T4 construct: also called hMCAM-Fc; Human MCAM-Fc protein; not shown: human IgG (Fc) portion
T4 chain: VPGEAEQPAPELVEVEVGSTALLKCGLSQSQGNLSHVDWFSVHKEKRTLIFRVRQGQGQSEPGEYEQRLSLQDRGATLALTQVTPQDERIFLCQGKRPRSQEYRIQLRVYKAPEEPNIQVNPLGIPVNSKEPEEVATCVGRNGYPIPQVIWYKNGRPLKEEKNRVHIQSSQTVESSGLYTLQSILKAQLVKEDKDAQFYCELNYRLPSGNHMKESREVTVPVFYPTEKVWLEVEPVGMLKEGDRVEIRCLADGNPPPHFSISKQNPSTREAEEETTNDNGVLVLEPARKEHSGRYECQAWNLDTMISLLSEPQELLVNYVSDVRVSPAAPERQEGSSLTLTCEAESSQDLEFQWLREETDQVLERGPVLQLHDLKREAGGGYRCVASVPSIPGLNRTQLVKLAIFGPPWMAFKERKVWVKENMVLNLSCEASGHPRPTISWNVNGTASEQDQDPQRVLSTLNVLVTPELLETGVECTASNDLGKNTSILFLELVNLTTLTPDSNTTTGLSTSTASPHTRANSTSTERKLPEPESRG

T5: human MCAM domain 3 (MCAMhFc domain construct) (human, UniProt P43121 244-321)
T5 construct: also called amino acids 244-321; not shown: human Fc portion
T5 sequence: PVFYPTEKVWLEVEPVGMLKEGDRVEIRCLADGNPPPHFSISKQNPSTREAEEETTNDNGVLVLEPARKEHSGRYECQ

B1: human MCAM, full length, expressed on transfected cells (receptor)
chain: VPGEAEQPAPELVEVEVGSTALLKCGLSQSQGNLSHVDWFSVHKEKRTLIFRVRQGQGQSEPGEYEQRLSLQDRGATLALTQVTPQDERIFLCQGKRPRSQEYRIQLRVYKAPEEPNIQVNPLGIPVNSKEPEEVATCVGRNGYPIPQVIWYKNGRPLKEEKNRVHIQSSQTVESSGLYTLQSILKAQLVKEDKDAQFYCELNYRLPSGNHMKESREVTVPVFYPTEKVWLEVEPVGMLKEGDRVEIRCLADGNPPPHFSISKQNPSTREAEEETTNDNGVLVLEPARKEHSGRYECQAWNLDTMISLLSEPQELLVNYVSDVRVSPAAPERQEGSSLTLTCEAESSQDLEFQWLREETDQVLERGPVLQLHDLKREAGGGYRCVASVPSIPGLNRTQLVKLAIFGPPWMAFKERKVWVKENMVLNLSCEASGHPRPTISWNVNGTASEQDQDPQRVLSTLNVLVTPELLETGVECTASNDLGKNTSILFLELVNLTTLTPDSNTTTGLSTSTASPHTRANSTSTERKLPEPESRGVVIVAVIVCILVLAVLGAVLYFLYKKGKLPCRRSGKQEITLPPSRKTELVVEVKSDKLPEEMGLLQGSSGDKRAPGDQGEKYIDLRH
notes: CHO cells transfected with the full length human MCAM gene; also called hMCAM; CD146

What was measured:
[1] = molecular target: T1, human MCAM domain 1 (MCAMhFc domain …); assay: ForteBio Octet Red, MCAMhFc domains on anti-human IgG Fc biosensors
Text: (§1) The following protocol was used: ForteBio anti-human IgG Fc biosensors were used to immobilize various MCAMhFc domains including full length MCAMhFc protein on to biosensor surface. […] After loading these samples into a black 96 well plate, the Octet Red was programmed as follows: 60 seconds for baseline #1; 180 seconds for loading various domains; 60 seconds for baseline #2; 180 seconds for association of antibody to domain; and 240 seconds for dissociation of antibody from domain.
(§2) 1. MCAMhFc final concentration@5 ug/ml [0374] […] 3. ForteBio anti-human IgG Fc Capture (AHC) biosensors for kinetics experiments, cat #18-5060 [0376] 4. Block 96 well plate from Greiner Bio-one, cat #655209 [0377] 5. ForteBio Octet Red machine [0378] 6. Fresh tissue culture medium, DMEM with 20% FCS, was used as buffer for dilution

[2] = molecular target: T2, human MCAM domain 2 (MCAMhFc domain …); assay: as above
Text: as §1, §2

[3] = molecular target: T3, combination of human MCAM domains 1 and …; assay: as above
Text: as §1, §2

[4] = molecular target: T4, full length MCAMhFc protein …; assay: summary of Examples 2 and 3
[5] = molecular target: T5, human MCAM domain 3 (MCAMhFc domain …); assay: ForteBio Octet Red, MCAMhFc domains on anti-human IgG Fc biosensors, antibody at 5 ug/ml
Text: as §1, §2

[6] = molecular target: B1; assay: blocking of laminin 411 (20 ug/ml) binding to CHO cells expressing human MCAM, flow cytometry
Method: The 87 independent mouse fusion clones and 26 independent rat fusion clones described in Example 1 above as being capable of (i) binding to human MCAM, and (ii) blocking the interaction between human MCAM and the α-4 chain of laminin were further characterized as follows. First, IC50 quantitation for the ability of the monoclonal antibody to block the binding of human MCAM to the α-4 chain of laminin was determined as follows. CHO cells expressing human MCAM were incubated with an anti-human MCAM antibody (at various concentrations) for 30 minutes at 4 degrees Celsius. […] Unbound laminin was then washed away, and the laminin bound to the surface of the cells was detected with fluorescently labeled anti-laminin antibodies. After washing, the amount of laminin bound to the surface was detected by flow cytometry, and IC50s were calculated based on the mean fluorescent intensity.
Amino acid and nucleic acid sequences of the heavy and light chains of these antibodies, and their hypervariable regions, are provided in SEQ ID NOs:29-92. […] As such, each of these specific monoclonal antibodies was very capable of binding to human MCAM and inhibiting the interaction of cell-expressed human MCAM with its α-4 laminin binding ligand.

recombinant laminin 511 = molecular target: T6, recombinant laminin 511 (UniProt O15230 36-3695; P07942 22-1786; P11047 34-1609); assay: CHO cells transfected with human MCAM incubated with laminin, pan-laminin antibody, flow cytometry
T6 construct: also called laminin 10 (α5β1γ1)

Binder | binding result [1] | binding result [2] | binding result [3] | binding result [4] | binding result [5] | IC50 [6] [mg/L] | binding result (recombinant laminin 511)
mouse anti-human MCAM monoclonal antibody clone 1174.1.3 (antibody, V domains shown, Mouse hybridoma antibody) VH: QIQLVQSGPELKKPGETVKISCKASGYTFTNYGMNWVKQAPGKGLKWMGWINTYTGEPTYADDFKGRFALSLETSASTAYLQINNLKNEDMATYFCARYRYNKYERAMDYWGQGTSVTVSS VL: DIVLTQSPASLAVSLGQRATISCRASKSVSTSGYSYMYWYQQKPGQPPKLLIYLASNLESGVPARFSGSGSGTDFTLNIHPVEEEDAATYYCQHSRELPFTFGSGTKLEIK | no binding (tested: 5 ug/ml) | no binding (tested: 5 ug/ml) | no binding (tested: 5 ug/ml) | binds | binds | 0.469 | –
mouse anti-human MCAM monoclonal antibody clone 1414.1.2 (antibody, V domains shown, Mouse hybridoma antibody) VH: EIQLQQTGPELVKPGASVKISCKASGYSFTDYIMLWVKQSHGKSLEWIGNINPYSGSSGYNLKFKGKATLTVDKSSSTAYMQLNSLTSEDSAVYYCARGKDFAMDYWGQGTSVTVSS VL: DIVMSQSPSSLAVSAGEKVTMSCKSSQSLLNSSTRKNFLAWYQQKPGQSPKLLIYWASTRESGVPDRFTGSGSGTDFTLTISSVQAEDLAVYYCKQSYNRYTFGGGTKLEIK | no binding (tested: 5 ug/ml) | no binding (tested: 5 ug/ml) | no binding (tested: 5 ug/ml) | binds | binds | 0.431 | –
mouse anti-human MCAM monoclonal antibody clone 1749.1.3 (antibody, V domains shown, Mouse hybridoma antibody) VH: DVKLVESGGDLVKPGGSLKLSCAASGFTFSSYIMSWVRQTPEKRLEWVATISSGGSSTYYPDSVKGRFTISRDNAKNTLYLQMSSLKSEDTAMYYCTRDDDYDVKVFAYWGQGTLVTVSA VL: DIVMSQSPSSLAVSAGEKVTMNCKSSRSLLNSRIRKNYLAWYQQKPGQSPKLLIYWASTRESGVPDRFTGSGSGTDFTLTISSVQAEDLAVYYCKQSYNLLTFGAGTKLELK | no binding (tested: 5 ug/ml) | no binding (tested: 5 ug/ml) | no binding (tested: 5 ug/ml) | binds | binds | 0.545 | –
mouse anti-human MCAM monoclonal antibody clone 1415.1.1 (antibody, V domains shown, Mouse hybridoma antibody) VH: QVQLQQPGAELVQPGAPVKLSCKASGYIFTSYWMNWVKQRPGRGLEWIGRIDPSDSKIHYNQKFKDKATLTVDRSSSTAYIQLGSLTSEDSAVYYCAKEGGLRRGDYAMDYWGQGTSVTVSS VL: DIVMTQSPATLSVTPGDRVSLSCRASQSISDYLHWYQQKSHESPRLLIKYASQSISGIPSRFSGSGSGSDFTLSINSVEPEDVGVYYCQNGHNFPRTFGGGTKLEIK | no binding (tested: 5 ug/ml) | no binding (tested: 5 ug/ml) | no binding (tested: 5 ug/ml) | binds | binds | 0.307 | –
B1 | – | – | – | – | – | – | no binding (tested: 10 µg/ml)
